Measured values published in article PMC3434267.

Columns and labels:
[1] = target: mGluR5 (endogenous, mouse) (mouse (endogenous in brain, spinal cord and cultured cortical neurons)) (UniProt Q3UVX5); experiment: co-IP
[2] = target: Homer (pan-Homer immunoprecipitation), DIV 14 cortical neurons (Figure 5c) (mouse (endogenous in cultured cortical neurons)); experiment: co-IP

Substance	co-IP in Preso1^−/− brain, % of WT [1]	co-IP in BDNF-treated Preso1^−/− neurons, % of untreated WT [2] [%]	co-IP in DHPG-treated Preso1^−/− neurons, % of untreated WT [2] [%]	co-IP in WT neurons after BDNF 30 min, % of untreated [2] [%]	co-IP in WT neurons after DHPG 30 min, % of untreated (% of untreated) [2]	co-IP in untreated Preso1^−/− neurons, % of untreated WT (BDNF series) [2] [%]	co-IP in untreated Preso1^−/− neurons, % of untreated WT (DHPG series) [2] [%]
ERK1/2, mouse forebrain (Figure 5b)	64.4 % of WT						
mGluR5 (endogenous, mouse) (from UniProt Q3UVX5 19-1203) (receptor)		69.8	54	158	157	65.3	47
